Assay results from patent US20200048328A1 (Bristol-Myers Squibb, published 2020).
Like-named read-outs stand apart in the source and are kept apart here. Each block holds one binder with its values, some of them ahead of it.

Key:
human PCSK9 [1] = target: T1, human PCSK9 (human, UniProt Q8NBP7 31-692); test: PCSK9:EGFA FRET 2, competition
T1 construct: also called hPCSK9; huPCSK9

human PCSK9 [2] = target: T1, human PCSK9; test: PCSK9:EGFA FRET 1, competition
cynomolgus PCSK9 = target: T2, cynomolgus PCSK9 (cynomolgus, UniProt A0A7N9D9N8 150-747); test: Octet Red, 37° C., core
T2 construct: also called cyno PCSK9

human PCSK9 [3] = target: T1, human PCSK9; test: Octet Red, 37° C., core
human PCSK9 [4] = target: T1, human PCSK9; test: PCSK9:LDLR FRET, competition
rhesus serum albumin [5] = target: T3, rhesus serum albumin (rhesus, UniProt Q28522 17-600); test: SPR, albumin immobilized
T3 construct: also called RhSA; Rh-SA

rat serum albumin [6] = target: T4, rat serum albumin (rat, UniProt P02770 25-608); test: SPR, albumin immobilized
T4 construct: also called Rat SA; RSA

mouse serum albumin [7] = target: T5, mouse serum albumin (mouse, UniProt P07724 25-608); test: SPR, albumin immobilized
T5 construct: also called MSA; MuSA

cynomolgus serum albumin [8] = target: T6, cynomolgus serum albumin (cynomolgus, UniProt A2V9Z4 25-608); test: SPR, albumin immobilized
T6 construct: also called cynoSA; CySA

human serum albumin [9] = target: T7, human serum albumin (human, UniProt P02768 25-609); test: SPR, albumin immobilized
T7 construct: immobilized on chips or coated on plates elsewhere; also called HSA; HuSA

rhesus serum albumin [10] = target: T3, rhesus serum albumin; test: direct binding ELISA, albumin coated
mouse serum albumin [11] = target: T5, mouse serum albumin; test: direct binding ELISA, albumin coated
human serum albumin [12] = target: T7, human serum albumin; test: direct binding ELISA, albumin coated
rat serum albumin [13] = target: T4, rat serum albumin; test: Albumin KD (37° C.), summary table; rat serum albumin (fourth value of the list)
mouse serum albumin [14] = target: T5, mouse serum albumin; test: Albumin KD (37° C.), summary table; mouse serum albumin (third value of the list)
human PCSK9 [15] = target: T1, human PCSK9; test: BLI (Octet), biotinylated PCSK9 on tips, no HSA
rhesus serum albumin [16] = target: T3, rhesus serum albumin; test: SPR, albumin immobilized, acetate pH 7.4
mouse serum albumin [17] = target: T5, mouse serum albumin; test: SPR, albumin immobilized, acetate pH 7.4
human serum albumin [18] = target: T7, human serum albumin; test: SPR, albumin immobilized, acetate pH 7.4
human PCSK9 [19] = target: T1, human PCSK9; test: PCSK9:EGFA FRET human, summary table
rhesus serum albumin [20] = target: T3, rhesus serum albumin; test: SPR, albumin immobilized, HBSP pH 7.4
mouse serum albumin [21] = target: T5, mouse serum albumin; test: SPR, albumin immobilized, HBSP pH 7.4
human serum albumin [22] = target: T7, human serum albumin; test: SPR, albumin immobilized, HBSP pH 7.4
rhesus serum albumin [23] = target: T3, rhesus serum albumin; test: SPR, albumin immobilized, acetate pH 5.5
mouse serum albumin [24] = target: T5, mouse serum albumin; test: SPR, albumin immobilized, acetate pH 5.5
human serum albumin [25] = target: T7, human serum albumin; test: SPR, albumin immobilized, acetate pH 5.5
rhesus serum albumin [26] = target: T3, rhesus serum albumin; test: SPR, albumin immobilized; remark: listed apart in the source
mouse serum albumin [27] = target: T5, mouse serum albumin; test: SPR, albumin immobilized; remark: listed apart in the source
human serum albumin [28] = target: T7, human serum albumin; test: SPR, albumin immobilized; remark: listed apart in the source
cynomolgus serum albumin [29] = target: T6, cynomolgus serum albumin; test: Albumin KD (37° C.), summary table; cynomolgus serum albumin (second value in the cell)
human serum albumin [30] = target: T7, human serum albumin; test: Albumin KD (37° C.), summary table; human serum albumin (first value in the cell)
human PCSK9 [31] = target: T1, human PCSK9; test: BLI (Octet), biotinylated PCSK9 on tips, tandem in complex with excess HSA
rhesus serum albumin [32] = target: T3, rhesus serum albumin; test: SPR, albumin immobilized; remark: listed apart in the source
rat serum albumin [33] = target: T4, rat serum albumin; test: SPR, albumin immobilized; remark: listed apart in the source
mouse serum albumin [34] = target: T5, mouse serum albumin; test: SPR, albumin immobilized; remark: listed apart in the source
cynomolgus serum albumin [35] = target: T6, cynomolgus serum albumin; test: SPR, albumin immobilized; remark: listed apart in the source
human serum albumin [36] = target: T7, human serum albumin; test: SPR, albumin immobilized; remark: listed apart in the source
human serum albumin [37] = target: T7, human serum albumin; test: hFcRn:HSA competition AlphaScreen, pH 5.5
human serum albumin [38] = target: T7, human serum albumin; test: direct binding ELISA on coated HSA, mono-Adnectin (column HSA EC50 (nM))
domain III of HSA = target: T8, domain III of HSA (human, UniProt P02768 405-609, limits assumed); test: SPR on HSA domains
T8 construct: domain: III; also called HuSA domainIII

domain I of HSA = target: T9, domain I of HSA (human, UniProt P02768 25-221, limits assumed); test: SPR on HSA domains
T9 construct: domain: I; also called HSA domain I

rhesus serum albumin [39] = target: T3, rhesus serum albumin; test: SPR, albumin immobilized, acetate pH 5.5; remark: listed apart in the source
mouse serum albumin [40] = target: T5, mouse serum albumin; test: SPR, albumin immobilized, acetate pH 5.5; remark: listed apart in the source
human serum albumin [41] = target: T7, human serum albumin; test: SPR, albumin immobilized, acetate pH 5.5; remark: listed apart in the source
rhesus serum albumin [42] = target: T3, rhesus serum albumin; test: SPR, albumin immobilized, HBS-P pH 7.4
mouse serum albumin [43] = target: T5, mouse serum albumin; test: SPR, albumin immobilized, HBS-P pH 7.4
human serum albumin [44] = target: T7, human serum albumin; test: SPR, albumin immobilized, HBS-P pH 7.4
mouse serum albumin [45] = target: T5, mouse serum albumin; test: SPR, albumin immobilized; remark: listed apart in the source

IC50 (human PCSK9 [1]): 10.6 nM
IC50 (human PCSK9 [2]): 19.7 nM
Kd (cynomolgus PCSK9): 39 nM
Kd (human PCSK9 [3]): 0.14 nM
IC50 (human PCSK9 [4]): 2.3 nM
B1: PCSK9 Adnectin 2382_D09 (designed binder)
chain: MGVSDVPRDLEVVAATPTSLLISWDAPAEGYGYYRITYGETGGNSPVQEFTVPVSKGTATISGLKPGVDYTITVYAVEFDFPGAGYYHRPISINYRT

Kd (rhesus serum albumin [5]): 53.8 nM
koff (rhesus serum albumin [5]): 0.000351 s⁻¹
kon (rhesus serum albumin [5]): 6520 M⁻¹ s⁻¹
Kd (rat serum albumin [6]): 200 nM
koff (rat serum albumin [6]): 0.00147 s⁻¹
kon (rat serum albumin [6]): 7350 M⁻¹ s⁻¹
Kd (mouse serum albumin [7]): 43.3 nM
koff (mouse serum albumin [7]): 0.000723 s⁻¹
kon (mouse serum albumin [7]): 16700 M⁻¹ s⁻¹
Kd (cynomolgus serum albumin [8]): 50.5 nM
koff (cynomolgus serum albumin [8]): 0.000326 s⁻¹
kon (cynomolgus serum albumin [8]): 6440 M⁻¹ s⁻¹
Kd (human serum albumin [9]): 57.2 nM
koff (human serum albumin [9]): 0.000272 s⁻¹
kon (human serum albumin [9]): 4790 M⁻¹ s⁻¹
B2: PCSK9-PKE2 tandem Adnectin w/o his tag 5190_E01 (designed binder)
chain: MGVSDVPRDLEVVAATPTSLLISWDAPAEGYGYYRITYGETGGNSPVQEFTVPVSKGTATISGLKPGVDYTITVYAVEFDFPGAGYYHRPISINYRTEPSTPPTPSPSTPPTPSPSGVSDVPRDLEVVAATPTSLLISWDAPAVTVRYYRITYGREVQKYSDLGPLYIYQEFTVPGSKSTATISGLKPGVDYTITVYAVTGSGESPASSKPISINYRTP
notes: also called ATI-1676; 4472_C06 tandem Adnectin without a 6X histidine tail

EC50 (rhesus serum albumin [10]): 131 nM
EC50 (mouse serum albumin [11]): 15.6 nM
EC50 (human serum albumin [12]): 184 nM
Kd (rat serum albumin [13]): 200 nM
IC50 (human PCSK9 [1]): 3.09 nM
Kd (mouse serum albumin [14]): 43 nM
Kd (human PCSK9 [15]): 0.515 nM
koff (human PCSK9 [15]): 0.000168 s⁻¹
kon (human PCSK9 [15]): 336000 M⁻¹ s⁻¹
IC50 (human PCSK9 [2]): 9.18 nM
Kd (rhesus serum albumin [16]): 80.7 nM
koff (rhesus serum albumin [16]): 0.000364 s⁻¹
kon (rhesus serum albumin [16]): 4510 M⁻¹ s⁻¹
Kd (mouse serum albumin [17]): 34.8 nM
koff (mouse serum albumin [17]): 0.000375 s⁻¹
kon (mouse serum albumin [17]): 10800 M⁻¹ s⁻¹
Kd (human serum albumin [18]): 74.7 nM
koff (human serum albumin [18]): 0.000325 s⁻¹
kon (human serum albumin [18]): 4350 M⁻¹ s⁻¹
IC50 (human PCSK9 [19]): 1.5 nM
Kd (rhesus serum albumin [20]): 78.9 nM
koff (rhesus serum albumin [20]): 0.000305 s⁻¹
kon (rhesus serum albumin [20]): 3860 M⁻¹ s⁻¹
Kd (mouse serum albumin [21]): 28.2 nM
koff (mouse serum albumin [21]): 0.000336 s⁻¹
kon (mouse serum albumin [21]): 11900 M⁻¹ s⁻¹
Kd (human serum albumin [22]): 72 nM
koff (human serum albumin [22]): 0.000258 s⁻¹
kon (human serum albumin [22]): 3580 M⁻¹ s⁻¹
Kd (rhesus serum albumin [23]): 97.5 nM
koff (rhesus serum albumin [23]): 0.000815 s⁻¹
kon (rhesus serum albumin [23]): 8360 M⁻¹ s⁻¹
Kd (mouse serum albumin [24]): 123 nM
koff (mouse serum albumin [24]): 0.00161 s⁻¹
kon (mouse serum albumin [24]): 13100 M⁻¹ s⁻¹
Kd (human serum albumin [25]): 38.2 nM
koff (human serum albumin [25]): 0.000466 s⁻¹
kon (human serum albumin [25]): 12200 M⁻¹ s⁻¹
Kd (rhesus serum albumin [26]): 77 nM
koff (rhesus serum albumin [26]): 0.000337 s⁻¹
kon (rhesus serum albumin [26]): 4380 M⁻¹ s⁻¹
Kd (mouse serum albumin [27]): 26.1 nM
koff (mouse serum albumin [27]): 0.000301 s⁻¹
kon (mouse serum albumin [27]): 11500 M⁻¹ s⁻¹
Kd (human serum albumin [28]): 73.7 nM
koff (human serum albumin [28]): 0.000289 s⁻¹
kon (human serum albumin [28]): 3920 M⁻¹ s⁻¹
Kd (cynomolgus serum albumin [29]): 51 nM
Kd (human serum albumin [30]): 57 nM
Kd (human PCSK9 [31]): 1.55 nM
koff (human PCSK9 [31]): 0.000305 s⁻¹
kon (human PCSK9 [31]): 197000 M⁻¹ s⁻¹
IC50 (human PCSK9 [4]): 1.4 nM
B3: PCSK9-PKE2 tandem Adnectin w/ his tag 4472_C06 (designed binder)
chain: MGVSDVPRDLEVVAATPTSLLISWDAPAEGYGYYRITYGETGGNSPVQEFTVPVSKGTATISGLKPGVDYTITVYAVEFDFPGAGYYHRPISINYRTEPSTPPTPSPSTPPTPSPSGVSDVPRDLEVVAATPTSLLISWDAPAVTVRYYRITYGREVQKYSDLGPLYIYQEFTVPGSKSTATISGLKPGVDYTITVYAVTGSGESPASSKPISINYRTEHHHHHH
notes: also called ATI-1574; ADX_4472_C06

Kd (rhesus serum albumin [32]): 1.8 nM
koff (rhesus serum albumin [32]): 0.000362 s⁻¹
kon (rhesus serum albumin [32]): 207000 M⁻¹ s⁻¹
Kd (rat serum albumin [33]): 200 nM
koff (rat serum albumin [33]): 0.0299 s⁻¹
kon (rat serum albumin [33]): 150000 M⁻¹ s⁻¹
Kd (mouse serum albumin [34]): 13.6 nM
koff (mouse serum albumin [34]): 0.0092 s⁻¹
kon (mouse serum albumin [34]): 678000 M⁻¹ s⁻¹
Kd (cynomolgus serum albumin [35]): 1.6 nM
koff (cynomolgus serum albumin [35]): 0.000335 s⁻¹
kon (cynomolgus serum albumin [35]): 208000 M⁻¹ s⁻¹
Kd (human serum albumin [36]): 1 nM
koff (human serum albumin [36]): 0.000162 s⁻¹
kon (human serum albumin [36]): 167000 M⁻¹ s⁻¹
IC50 (human serum albumin [37]): 28.7 nM
EC50 (human serum albumin [38]): 9 nM
binding result (domain III of HSA): no binding
binding result (domain I of HSA): no binding
B4: PKE2 Adnectin 2630_D02 (designed binder)
chain: MGVSDVPRDLEVVAATPTSLLISWDAPAVTVRYYRITYGREVQKYSDWGPLYIYNEFTVPGSKSTATISGLKPGVDYTITVYAVTGSGESPASSKPISINYRTEIDKPSQHHHHHH
notes: 10Fn3 domain with modified CD loop; the entry includes the His6 tail

IC50 (human serum albumin [37]): 37 nM
Kd (rhesus serum albumin [39]): 17.6 nM
koff (rhesus serum albumin [39]): 0.00105 s⁻¹
kon (rhesus serum albumin [39]): 59600 M⁻¹ s⁻¹
Kd (mouse serum albumin [40]): ~192 nM
koff (mouse serum albumin [40]): 0.0146 s⁻¹
kon (mouse serum albumin [40]): 75900 M⁻¹ s⁻¹
Kd (human serum albumin [41]): 8.82 nM
koff (human serum albumin [41]): 0.000898 s⁻¹
kon (human serum albumin [41]): 102000 M⁻¹ s⁻¹
Kd (rhesus serum albumin [42]): 6.98 nM
koff (rhesus serum albumin [42]): 0.000577 s⁻¹
kon (rhesus serum albumin [42]): 82700 M⁻¹ s⁻¹
Kd (mouse serum albumin [43]): 67.7 nM
koff (mouse serum albumin [43]): 0.00909 s⁻¹
kon (mouse serum albumin [43]): 134000 M⁻¹ s⁻¹
Kd (human serum albumin [44]): 5.58 nM
koff (human serum albumin [44]): 0.000368 s⁻¹
kon (human serum albumin [44]): 65900 M⁻¹ s⁻¹
fold weaker affinity than for human or rhesus albumin (mouse serum albumin [45]): ~10 fold
binding result (domain III of HSA): no binding
binding result (domain I of HSA): no binding
B5: PKE2 Adnectin 2270_C01 (designed binder)
chain: MASTSGVPRDLEVVAATPTSLLISWDAPAVTVRYYRITYGWQVQMYSDWGPLYIYKEFTVPGSKSTATISGLKPGVDYTITVYAVTGSGESPASSKPISINYRTEGDKPSQHHHHHH
notes: as for B4
